Data on 1 molecule can be found in patent US20140286859A1 (published 2014).

Values joined by “and” are separate entries in the source; they are usually repeats but may differ in a detail not shown here. Equal entries are not always repeated.

The target of the test is recombinant soluble PSMA (rsPSMA) (human, UniProt Q04609 44-750).
Chain of recombinant soluble PSMA (rsPSMA) (Q04609 44-750): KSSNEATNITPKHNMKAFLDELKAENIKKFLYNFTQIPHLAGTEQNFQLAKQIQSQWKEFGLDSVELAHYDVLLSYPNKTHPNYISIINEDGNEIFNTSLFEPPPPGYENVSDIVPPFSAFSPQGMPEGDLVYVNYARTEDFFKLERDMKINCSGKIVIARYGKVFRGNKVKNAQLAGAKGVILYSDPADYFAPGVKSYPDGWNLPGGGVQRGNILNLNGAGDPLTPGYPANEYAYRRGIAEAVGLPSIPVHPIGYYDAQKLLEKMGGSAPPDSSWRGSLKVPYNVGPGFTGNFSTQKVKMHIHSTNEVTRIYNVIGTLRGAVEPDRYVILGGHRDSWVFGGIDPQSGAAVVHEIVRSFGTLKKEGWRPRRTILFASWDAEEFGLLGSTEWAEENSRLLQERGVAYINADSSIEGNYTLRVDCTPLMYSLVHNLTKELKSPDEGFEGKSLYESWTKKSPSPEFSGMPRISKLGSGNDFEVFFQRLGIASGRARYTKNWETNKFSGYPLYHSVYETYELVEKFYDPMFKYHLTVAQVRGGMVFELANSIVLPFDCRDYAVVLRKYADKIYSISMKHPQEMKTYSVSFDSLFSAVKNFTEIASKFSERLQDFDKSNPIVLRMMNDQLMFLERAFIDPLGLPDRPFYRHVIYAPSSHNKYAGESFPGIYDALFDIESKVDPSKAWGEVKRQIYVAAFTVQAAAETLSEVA

B1: PSMA 10.3 (antibody, V domains shown)
VH: QEQLVESGGGVVQPGRSLRLSCAASGFTFSTYGMHWVRQAPGKGLEWVAVTWHDGSNKYYADSVKGRFTISRDNSKNTLYLQMNSLRAEDTAVYYCARGGVGATYYYYYGMDVWGQGTTVTVSS
VL: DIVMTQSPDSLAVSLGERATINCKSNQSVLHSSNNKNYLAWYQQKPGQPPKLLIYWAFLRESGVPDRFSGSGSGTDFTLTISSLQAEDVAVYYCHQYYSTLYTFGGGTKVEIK
For the molecule B1, the koff (commonly the first-order rate constant of dissociation) was 6.32e-05 s⁻¹ and 6.43e-05 s⁻¹.
